Data taken from patent US20140206628A1 (University of Washington, published 2014).
Read-outs that look alike come from different tables or passages of the source.

Columns and labels:
[1] = biological target: T1, A/South Carolina/1/1918 (H1N1) hemagglutinin ectodomain, biotinylated (Influenza A virus A/South …); assay: yeast surface display titration
[2] = biological target: T1, A/South Carolina/1/1918 (H1N1) …; assay: yeast surface display titration; remark: listed apart in the source

Binder | binding result [1] | binding result [2]
HB80.3_s4_E82 (designed binder) MASTRGSGRPWKFSENVAFEIALSFTNKDTPDRWAKVARYVRGRTPEEVKKHYE | binds | 
HB36.4_s4_E11 (designed binder) MSNAMDGQQLNRLLLEWIGAWDPFGLGKDAYDVEADAVLKAVYETNSAFDLAMRIHWIYNFAFKRKIPFVHAQKLARRLLELKQAASSPLP |  | binds
HB80.3_s4_E94 (designed binder) ASTRGSGRPWKFSENVAFELALYFTNKDTPDRWAKVARYVKGRTPEEVKKHYE | binds | 
